Assay: Stability challenge test of plant-made EGF in formulation 1
Type: physicochemical
Conditions: reconstituted freeze-dried non-glycosylated EGF in formulation 1; +4° C., RT and +37° C.; up to 3 weeks; gel, FIG. 5
Text: Size markers 11 and 17 kDa in the first lane. […] (Ref.http://www.cellsciences.com/PDF/CRE100.pdf)

plant-made EGF: purified, reconstituted freeze-dried, non-glycosylated, plant-made EGF in a formulation as in Example 5, formulation 1
stability of the growth factor: excellent stability

From US20130266536A1, “METHOD OF USE OF STABILIZED PLANT-DERIVED GROWTH FACTOR IN SKIN CARE” (priority 2010, published 2013)
